In series [1] the test system is HeLa Kyoto. As to the kind of experiment: solubility in G1/S (NP-40 vs SDS abundance) (log2 ratio); higher = more soluble. The conditions noted are these: cell cycle stage: G1/S.
For series [2], the system named is HeLa Kyoto. The series is described as follows: melting temperature (median over replicates), in situ; higher = more thermally stable.
The test system of series [3] is HeLa Kyoto. As to the kind of experiment: solubility change mitosis vs G1/S (difference of NP-40 vs SDS log2 ratios) (log2 ratio difference); higher = more soluble in mitosis.
Series [4] relates to HeLa Kyoto. As to the kind of experiment: thermal stability score vs G1/S (z-score of summed log2 fold changes over temperatures); higher = more thermally stable than in G1/S.
Where [5] appears, read: cell cycle stage: early G1 (4.5 h after nocodazole release).

The values that follow come from the supplement of paper PMC5998384.
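Wherever melting temperature (median over replicates), in situ is given: HeLa Kyoto cells synchronized by double thymidine or nocodazole block, proteins quantified by TMT10plex mass spectrometry, three independent biological replicates.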
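Wherever solubility change mitosis vs G1/S (difference of NP-40 vs SDS log2 ratios) is given: synchronized HeLa Kyoto cells (double thymidine block for G1/S, nocodazole release for mitosis), protein amounts in NP-40 versus SDS lysates quantified by mass spectrometry, three biological replicates.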
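Wherever solubility in G1/S (NP-40 vs SDS abundance) is given: HeLa Kyoto cells arrested at G1/S by double thymidine block, proteins quantified by TMT10plex mass spectrometry in mild NP-40 versus SDS extracts, three biological replicates.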
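Wherever thermal stability score vs G1/S (z-score of summed log2 fold changes over temperatures) is given: synchronized HeLa Kyoto cells, proteins quantified by TMT10plex mass spectrometry, three biological replicates, mitosis taken 0.5 h after nocodazole release, G1/S directly after double thymidine block.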

With “MSTSWSDRLQNAADMPANMDKHALKKYRREAYHRVFVNRSLAMEKIKCFGFDMDYTLAVYKSPEYESLGFELTVERLVSIGYPQELLSFAYDSTFPTRGLVFDTLYGNLLKVDAYGNLLVCAHGFNFIRGPETREQYPNKFIQRDDTERFYILNTLFNLPETYLLACLVDFFTNCPRYTSCETGFKDGDLFMSYRSMFQDVRDAVDWVHYKGSLKEKTVENLEKYVVKDGKLPLLLSRMKEVGKVFLATNSDYKYTDKIMTYLFDFPHGPKPGSSHRPWQSYFDLILVDARKPLFFGEGTVLRQVDTKTGKLKIGTYTGPLQHGIVYSGGSSDTICDLLGAKGKDILYIGDHIFGDILKSKKRQGWRTFLVIPELAQELHVWTDKSSLFEELQSLDIFLAELYKHLDSSSNERPDISSIQRRIKKVTHDMDMCYGMMGSLFRSGSRQTLFASQVMRYADLYAASFINLLYYPFSYLFRAAHVLMPHESTVEHTHVDINEMESPLATRNRTSVDFKDTDYKRHQLTRSISEIKPPNLFPLAPQEITHCHDEDDDEEEEEEEE [NT5C2]”, the “solubility in G1/S (log2)” value in series [1] is -0.096. Further, the melting temperature was found to be 56.5 °C in series [2] (cell cycle stage: G1/S) and 56.3 °C in series [2] (cell cycle stage: mitosis). In addition, in series [3], the “solubility change mitosis (log2)” value is -0.133. Besides, the thermal stability score is -0.51 in series [4] (setting [5]) and -1.23 in series [4] (cell cycle stage: mitosis).

“MAPDSDPFPEGPLLKLLPLDARDRGTQRCRLGPAALHALGARLGSAVKISLPDGGSCLCTAWPRRDGADGFVQLDPLCASPGAAVGASRSRRSLSLNRLLLVPCPPLRRVAVWPVLRERAGAPGARNTAAVLEAAQELLRNRPISLGHVVVAPPGAPGLVAALHIVGGTPSPDPAGLVTPRTRVSLGGEPPSEAQPQPEVPLGGLSEAADSLRELLRLPLRYPRALTALGLAVPRGVLLAGPPGVGKTQLVRAVAREAGAELLAVSAPALQGSRPGETEENVRRVFQRARELASRGPSLLFLDEMDALCPQRGSRAPESRVVAQVLTLLDGASGDREVVVVGATNRPDALDPALRRPGRFDREVVIGTPTLKQRKEILQVITSKMPISSHVDLGLLAEMTVGYVGADLTALCREAAMHALLHSEKNQDNPVIDEIDFLEAFKNIQPSSFRSVIGLMDIKPVDWEEIGGLEDVKLKLKQSIEWPLKFPWEFVRMGLTQPKGVLLYGPPGCAKTTLVRALATSCHCSFVSVSGADLFSPFVGDSEKVLSQIFRQARASTPAILFLDEIDSILGARSASKTGCDVQERVLSVLLNELDGVGLKTIERRGSKSSQQEFQEVFNRSVMIIAATNRPDVLDTALLRPGRLDKIIYIPPPDHKGRLSILKVCTKTMPIGPDVSLENLAAETCFFSGADLRNLCTEAALLALQENGLDATTVKQEHFLKSLKTVKPSLSCKDLALYENLFKKEGFSNVEGI [SPATA5L1]”: the “solubility in G1/S (log2)” value in series [1] is -0.0544. Moreover, the melting temperature in series [2] (cell cycle stage: G1/S) was determined as 52.8 °C; in series [2] (cell cycle stage: mitosis), 51.2 °C. The “solubility change mitosis (log2)” value in series [3] is 0.095. Also, the thermal stability score is -0.664 in series [4] (setting [5]) and -2.04 in series [4] (cell cycle stage: mitosis).

On to “MAATASAGAGGIDGKPRTSPKSVKFLFGGLAGMGATVFVQPLDLVKNRMQLSGEGAKTREYKTSFHALTSILKAEGLRGIYTGLSAGLLRQATYTTTRLGIYTVLFERLTGADGTPPGFLLKAVIGMTAGATGAFVGTPAEVALIRMTADGRLPADQRRGYKNVFNALIRITREEGVLTLWRGCIPTMARAVVVNAAQLASYSQSKQFLLDSGYFSDNILCHFCASMISGLVTTAASMPVDIAKTRIQNMRMIDGKPEYKNGLDVLFKVVRYEGFFSLWKGFTPYYARLGPHTVLTFIFLEQMNKAYKRLFLSG [SLC25A11]”, for which the “solubility in G1/S (log2)” value in series [1] was -0.0956. The melting temperature was found to be 59.1 °C in series [2] (cell cycle stage: G1/S) and 59.8 °C in series [2] (cell cycle stage: mitosis). Besides, the “solubility change mitosis (log2)” value in series [3] was -0.187. Also, the thermal stability score is -1.46 in series [4] (setting [5]) and -2.54 in series [4] (cell cycle stage: mitosis).

Take “MDQEPVGGVERGEAVAASGAAAAAAFGESAGQMSNERGFENVELGVIGKKKKVPRRVIHFVSGETMEEYSTDEDEVDGLEKKDVLPTVDPTKLTWGPYLWFYMLRAATSTLSVCDFLGEKIASVLGISTPKYQYAIDEYYRMKKEEEEEEEENRMSEEAEKQYQQNKLQTDSIVQTDQPETVISSSFVNVNFEMEGDSEVIMESKQNPVSVPP [FAM177A1]”: the “solubility in G1/S (log2)” value in series [1] worked out at 0.0523. The figures for the melting temperature in series [2] (cell cycle stage: G1/S) and in series [2] (cell cycle stage: mitosis) were 54.5 °C and 56.5 °C, respectively. Also, the “solubility change mitosis (log2)” value in series [3] was -0.0492. The results for the thermal stability score in series [4] (setting [5]) and in series [4] (cell cycle stage: mitosis) were 0.512 and -0.398, respectively.

For the sequence “MSAFDTNPFADPVDVNPFQDPSVTQLTNAPQGGLAEFNPFSETNAATTVPVTQLPGSSQPAVLQPSVEPTQPTPQAVVSAAQAGLLRQQEELDRKAAELERKERELQNTVANLHVRQNNWPPLPSWCPVKPCFYQDFSTEIPADYQRICKMLYYLWMLHSVTLFLNLLACLAWFSGNSSKGVDFGLSILWFLIFTPCAFLCWYRPIYKAFRSDNSFSFFVFFFVFFCQIGIYIIQLVGIPGLGDSGWIAALSTLDNHSLAISVIMMVVAGFFTLCAVLSVFLLQRVHSLYRRTGASFQQAQEEFSQGIFSSRTFHRAASSAAQGAFQGN [SCAMP2]”, in series [1], the “solubility in G1/S (log2)” value came to 0.177. For the same sequence, the melting temperature is 58.4 °C in series [2] (cell cycle stage: G1/S) and 56.6 °C in series [2] (cell cycle stage: mitosis). The “solubility change mitosis (log2)” value in series [3] was -0.103. The figures for the thermal stability score in series [4] (setting [5]) and in series [4] (cell cycle stage: mitosis) were -1.72 and -3.07, respectively.
